Consider six molecules from patent publication US20110065645A1, “Compositions and Methods for Modulating Neuron Degeneration and Neuron Guidance” (The Regents of the University of California, priority 2009, published 2011).

What all share (format): cell-based
The target in experiment [1] is T1, Fzd3 (Mus musculus, UniProt Q61086).
T1 construct: expressed in transfected cells; host or cells: HEK293T
T1 sequence (Q61086 23-666): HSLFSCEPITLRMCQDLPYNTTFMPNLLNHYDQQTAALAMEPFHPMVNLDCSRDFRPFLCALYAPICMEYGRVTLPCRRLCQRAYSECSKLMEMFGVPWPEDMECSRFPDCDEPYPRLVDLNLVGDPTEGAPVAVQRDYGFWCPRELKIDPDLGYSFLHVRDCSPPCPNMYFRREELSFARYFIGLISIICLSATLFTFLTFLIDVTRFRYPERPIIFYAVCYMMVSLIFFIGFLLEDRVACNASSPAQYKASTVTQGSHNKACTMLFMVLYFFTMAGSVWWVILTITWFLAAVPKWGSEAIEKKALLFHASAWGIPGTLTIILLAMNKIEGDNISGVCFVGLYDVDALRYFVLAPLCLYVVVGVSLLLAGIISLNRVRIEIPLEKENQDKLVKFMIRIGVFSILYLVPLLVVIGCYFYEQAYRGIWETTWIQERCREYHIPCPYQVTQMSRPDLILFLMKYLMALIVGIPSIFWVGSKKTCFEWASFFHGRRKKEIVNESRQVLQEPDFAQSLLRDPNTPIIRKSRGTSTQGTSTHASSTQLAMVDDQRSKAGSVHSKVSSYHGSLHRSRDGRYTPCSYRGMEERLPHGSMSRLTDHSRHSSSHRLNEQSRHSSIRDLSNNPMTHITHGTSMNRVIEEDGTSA
The experiment can be described thus: Surface biotinylation and avidin immunoprecipitation of Fzd3 in HEK293T cells. To be noted: HEK293T co-transfection, Vgl2 value in the presence of Dvl1. An excerpt: Dvl and Vgl have antagonistic functions on Fzd3 phosphorylation. […] We transfected Fzd3-mCherry in HEK293T cells then surface biotinylated and immunoprecipitated (IP) the surface molecules with strepavidin-conjugated beads to obtain membrane-localized proteins. […] We tested whether these two Fzd3 bands represent phosphorylation states of the Frizzled3 protein, one being phosphorylated/hyperphosphorylated Fzd3 (p-Fzd3) and the other non-phosphorylated Fzd3. […] Phosphorylation of Fzds has been shown previously in Xenopus oocytes
It has been proposed that Frizzled internalization is necessary for PCP signaling and phenotypes (Gagliardi et al., 2008; Yu et al., 2007). However, it has never been directly tested whether the cell surface level of Fzd, the Wnt-PCP receptor, changes upon Wnt addition. By using our surface biotinylation and immunoprecipitation with avidin, we show here, 15 minutes after Wnt addition, cell surface level of Fzd3-EGFP is diminished (FIG. 18C, Avidin IP, lane 3 anti-EGFP IB). […] This Fzd3 receptor oscillation from and to the membrane appeared to be a Wnt-Fzd specific effect because a non-Wnt binding receptor, such as the Insulin receptor stayed the same throughout the Wnt stimulation (FIG. 18C, Avidin IP, anti-Insulin Rβ IB). The Wnt-dependent Fzd3 oscillation is quantified in FIG. 18D (cross symboled line). […] In addition, PCP components appeared to effect this Wnt dependent oscillation of Fzd3 to and from the membrane. When Dvl1 is over expressed with Fzd3, we found within 30 minutes Fzd3 is unable to be internalized (FIG. 25B, lanes 5-7 and line). However, upon the introduction of Vangl2 into the transfection mix, Fzd3 oscillation is resumed (FIG. 25B, lanes 8-10 and circle symboled line).
Surface biotinylation and immunopreciptiation. 30 hours after transfection with the indicated constructs into HEK293T cells (FuGene, Roche), followed by 8-hour incubation in Optimem and subsequent bath application of recombinant Wnt5a (R&D Systems), surface proteins were subsequently labeled on ice with 1 mg/ml of Sulfo-NHS-LC-Biotin reagent (Pierce). The cell lysates were collect over a period of 30 minutes on ice in the following lysis buffer: 20 mM Tris pH7.6, 150 mM NaCl, 1% Triton, 0.1% SDS, 2.5 mM EDTA, 2.5 mM EGTA, protease Inhibitors (Roche). For the membrane immunoprecipitation, 600 ug of protein extracts were incubated overnight and retrieved by NeutrAvidin-coated Agarose beads (Pierce), the bound fraction was boiled and loaded on SDS-PAGE gel and analyzed by western blot analysis. To visualize the input amount 20 ug of total lysate was loaded, and for the Avidin IPs the total amount was loaded for western blot analysis. The following primary antibodies were used for the immunoblots: α-Frizzled3 (Wang et al., 2006), α-Vangl2 (Santa Cruz), α-mCherry/DsRed (Clontech), α-Jun (Cell Signaling), α-phospho-Jun (Cell Signaling), α-JNK (Cell Signaling), α-phospho-JNK (Cell Signaling), α-Flag (Sigma), α-GAPDH (Chemicon), α-Insulin Rβ (Santa Cruz).

Experiment [2] deals with β-catenin. Kind of experiment: β-catenin immunostaining in commissural axon growth cones. The conditions noted are these: bath application; LiCl 2 mM. An excerpt: To understand how atypical PKC/Par pathway regulates axon guidance, we set out to determine the subcellular localization of aPKC, their substrates and downstream cellular effectors. […] Thus, our high-resolution confocal imaging detects a tendency of β-catenin being concentrated to one side of the growth cone (FIG. 9A). It is possible that there is low level of Wnt proteins in the culture (many neurons express Wnts). […] Therefore, it is also possible that intrinsic aPKC signaling can create chirality within the growth cone with out extrinsic signals. Such intrinsic polarity may then robustly regulate cellular morphology upon directional instructions from the environment such as a Wnt gradient. It is well known that GSK3β phosphorylates β-catenin, which then leads to proteosome-mediated degradation of β-catenin. And it is also known that GSK3β is phosphorylated and inhibited by PKCζ^(1,2). Therefore, inhibiting GSK3β or the proteosome activity generally should increase β-catenin level throughout the growth cone, canceling the asymmetry. […] We are now testing the hypothesis that Wnt proteins may locally activate PKCζ, which then inhibits GSK3β and locally stabilizes β-catenin, which is part of the asymmetric cellular mechanism leading to directional choice of a growth cone. We examine the localization of β-catenin in post-crossing commissural axon growth cones in the “post-crossing” assay and “open-book” assays.

In experiment [3] the test system is cortical neurons. The experiment can be described thus: Cortical neuron death/survival assay under PKCζ inhibition (Tuj1, TUNEL, DAPI staining). To be noted: for cell death induced by PKC inhibition: pretreatment before pseudosubstrate peptide. An excerpt:
1. PKCζ is required for survival of cortical neurons. E15.5 cortical neurons were dissociated and cultured for 2 days in the presence of various concentrations of a cell membrane penetrating myristoylated peptide derived in the pseudosubstrate domain of PKC (FIGS. 12A-12D). This peptide is a specific inhibitor of PKCζ.
2. Axon degeneration procedes cell body death when PKC is inhibited. We examined the timing of axon degeneration and cell body death. […] The death induced by PKCζ inhibition is much faster than Aβ peptide induced neuronal death (FIG. 12D), probably because the PKCζ is an essential kinase and peptide inhibition causes instant death, whereas Aβ has to bind to cell surface receptor and trigger a signaling cascade to cause death, which requires a longer time.
3. Wnts are trophic factors for cortical neurons. […] Nuclear shrinkage (pyknosis) is a hallmark of neuronal cell death. Using DAPI staining, we can visualize the cell nuclei (FIG. 14B). […] Initial cortical axons and dendrite form and grow but axons start to disintegrate at E18.5 (FIG. 14D, from Wang et al 2006),^(13) (FIGS. 12F, 12K). Based on our preliminary results, we propose that Wnts are not only axon guidance molecules but also regulate neuronal survival and axon degeneration acting via PKC (FIG. 15).
3. Survival and cell death assays for screening of monoclonal antibodies and small compounds. We use the same cell death/survival assay as described in FIGS. 12A-14D and use microtubule staining to analyze the integrity of microtubules, DAPI stain to measure the size of cell nuclei and TUNEL staining to assay cell death. Microtubule disassembly is quantified by staining intensity of Tuj1 and Tau antibodies. The size of cell nuclei is binned into difference sizes and the distribution of the nuclei size is used as quantification of pyknosis (FIG. 14C).

Peptide text beside a SMILES is read from it. * marks the point of attachment. Cbz = O=C(OCc1ccccc1)*

For “Vgl2: Vang Gogh Like protein 2 expressed by transfection in HEK293T cells”, the “Fzd3 at the membrane relative to Fzd3-mCherry transfected alone” value in experiment [1] amounted to 2 fold.
Consider `CC(C)C[C@@H](C=O)NC(=O)[C@H](CC(C)C)NC(=O)[C@H](CC(C)C)NC(=O)OCc1ccccc1` [MG132, reference compound] (Cbz-Leu-Leu-Leu-aldehyde), for which the “β-catenin level and asymmetry in the growth cone” value (shortened to “β-catenin level and asymmetry”) in experiment [2] is on record as “elevated the level of β-catenin throughout the growth cone”.
Take `[Cl-].[Li+]` [LiCl, reference compound]: the “β-catenin level and asymmetry” value in experiment [2] was “elevated the level of β-catenin throughout the growth cone”. In experiment [3] (neuronal death induced by PKCζ inhibition), the “pyknosis (nuclear shrinkage, DAPI staining, Image J)” value was “partially blocked”. For the same molecule, in experiment [3], the “cell death induced by PKC inhibition” value is recorded as “block/reduce the cell death”.

B1: Dvl1: Dvl1-EGFP expressed by transfection in HEK293T cells (protein)
chain: MAETKIIYHMDEEETPYLVKLPVAPERVTLADFKNVLSNRPVHAYKFFFKSMDQDFGVVKEEIFDDNAKLPCFNGRVVSWLVLAEGAHSDAGSQGTDSHTDLPPPLERTGGIGDSRPPSFHPNVASSRDGMDNETGTESMVSHRRERARRRNRDEAARTNGHPRGDRRRDLGLPPDSASTVLSSELESSSFIDSDEEDNTSRLSSSTEQSTSSRLVRKHKCRRRKQRLRQTDRASSFSSITDSTMSLNIITVTLNMERHHFLGISIVGQSNDRGDGGIYIGSIMKGGAVAADGRIEPGDMLLQVNDVNFENMSNDDAVRVLREIVSQTGPISLTVAKCWDPTPRSYFTIPRADPVRPIDPAAWLSHTAALTGALPRYGTSPCSSAITRTSSSSLTSSVPGAPQLEEAPLTVKSDMSAIVRVMQLPDSGLEIRDRMWLKITIANAVIGADVVDWLYTHVEGFKERREARKYASSMLKHGFLRHTVNKITFSEQCYYVFGDLCSNLASLNLNSGSSGASDQDTLAPLPHPSVPWPLGQGYPYQYPGPPPCFPPAYQDPGFSCGSGSAGSQQSEGSKSSGSTRSSHRTPGREERRATGAGGSGSESDHTVPSGSGSTGWWERPVSQLSRGSSPRSQASAVAPGLPPLHPLTKAYAVVGGPPGGPPVRELAAVPPELTGSRQSFQKAMGNPCEFFVDIM
modifications: left off: large carriers
notes: Dvl1-EGFP expressed by transfection in HEK293T cells
As to B1, the “Fzd3 at the membrane relative to Fzd3-mCherry transfected alone” value in experiment [1] was 3 fold; in experiment [1] (listed as Dvl), “approximately 3 fold”.

B2: Wnt7a: recombinant Wnt7a (protein, UniProt O00755 32-349, looked up)
Protein Wnt-7a: LGASIICNKIPGLAPRQRAICQSRPDAIIVIGEGSQMGLDECQFQFRNGRWNCSALGERTVFGKELKVGSREAAFTYAIIAAGVAHAITAACTQGNLSDCGCDKEKQGQYHRDEGWKWGGCSADIRYGIGFAKVFVDAREIKQNARTLMNLHNNEAGRKILEENMKLECKCHGVSGSCTTKTCWTTLPQFRELGYVLKDKYNEAVHVEPVRASRNKRPTFLKIKKPLSYRKPMDTDLVYIEKSPNYCEEDPVTGSVGTQGRACNKTAPQASGCDLMCCGRGYNTHQYARVWQCNCKFHWCCYVKCNTCSERTEMYTCK
B2: in experiment [3] (5 um pseudosubstrate peptide), the “axon degeneration / reduction of microtubule staining (Tuj1)” value was “much less degeneration was seen”. Also, the “axons remaining judged by Tuj1 staining” value in experiment [3] (10 um pseudosubstrate peptide) is “more axons still remain”. In experiment [3], the “cell death induced by PKC inhibition” value is recorded as “block/reduce the cell death”.

B3: sFPR2: a Wnt inhibitor, secreted Frizzled-related protein (protein, UniProt Q96HF1 25-295, looked up)
Secreted frizzled-related …: LFLFGQPDFSYKRSNCKPIPANLQLCHGIEYQNMRLPNLLGHETMKEVLEQAGAWIPLVMKQCHPDTKKFLCSLFAPVCLDDLDETIQPCHSLCVQVKDRCAPVMSAFGFPWPDMLECDRFPQDNDLCIPLASSDHLLPATEEAPKVCEACKNKNDDDNDIMETLCKNDFALKIKVKEITYINRDTKIILETKSKTIYKLNGVSERDLKKSVLWLKDSLQCTCEEMNDINAPYLVMGQKQGGELVITSVKRWQKGQREFKRISRSIRKLQC
Regarding B3, the “β-catenin level and asymmetry” value in experiment [2] was “eliminated asymmetric distribution of β-catenin”.
